{
  "source": "patent EP1169642B1",
  "binders": {"B1": {"name": "recombinant dentin matrix protein 1 (rDMP1) (ligand)", "chain": "LPVTRYQNNESEDSEEWKGHLAQAPTPPLESSESSEGSKVSSEEQANEDPSDSTQSEEGLGSDDHQYIYRLAGGFSRSTGKGGDDKDDDEDDSGDDTFGDDDSGPGPKDRQEGGNSRLGSDEDSDDTIQASEESAPQGQDSAQDTTSESRELDNEDRVDSKPEGGDSTQESESEEHWVGGGSDGESSHGDGSELDDEGMQSDDPESIRSERGNSRMNSAGMKSKESGENSEQANTQDSGGSQLLEHPSRKIFRKSRISEEDDRSELDDNNTMEEVKSDSTENSNSRDTGLSQPRRDSKGDSQEDSKENLSQEESQNVDGPSSESSQEANLSSQENSSESQEEVVSESRGDNPDPTTSYVEDQEDSDSSEEDSSHTLSHSKSESREEQADSESSESLNFSEESPESPEDENSSSQEGLQSHSSSAESQSEESHSEEDDSDSQDSSRSKEDSNSTESKSSSEEDGQLKNIEIESRKLTVDAYHNKPIGDQDDNDCQDGY"}},
  "molecular_target": "purified human complement Factor H (human) (UniProt P08603)",
  "sequence (P08603 19-1231 limits assumed)": "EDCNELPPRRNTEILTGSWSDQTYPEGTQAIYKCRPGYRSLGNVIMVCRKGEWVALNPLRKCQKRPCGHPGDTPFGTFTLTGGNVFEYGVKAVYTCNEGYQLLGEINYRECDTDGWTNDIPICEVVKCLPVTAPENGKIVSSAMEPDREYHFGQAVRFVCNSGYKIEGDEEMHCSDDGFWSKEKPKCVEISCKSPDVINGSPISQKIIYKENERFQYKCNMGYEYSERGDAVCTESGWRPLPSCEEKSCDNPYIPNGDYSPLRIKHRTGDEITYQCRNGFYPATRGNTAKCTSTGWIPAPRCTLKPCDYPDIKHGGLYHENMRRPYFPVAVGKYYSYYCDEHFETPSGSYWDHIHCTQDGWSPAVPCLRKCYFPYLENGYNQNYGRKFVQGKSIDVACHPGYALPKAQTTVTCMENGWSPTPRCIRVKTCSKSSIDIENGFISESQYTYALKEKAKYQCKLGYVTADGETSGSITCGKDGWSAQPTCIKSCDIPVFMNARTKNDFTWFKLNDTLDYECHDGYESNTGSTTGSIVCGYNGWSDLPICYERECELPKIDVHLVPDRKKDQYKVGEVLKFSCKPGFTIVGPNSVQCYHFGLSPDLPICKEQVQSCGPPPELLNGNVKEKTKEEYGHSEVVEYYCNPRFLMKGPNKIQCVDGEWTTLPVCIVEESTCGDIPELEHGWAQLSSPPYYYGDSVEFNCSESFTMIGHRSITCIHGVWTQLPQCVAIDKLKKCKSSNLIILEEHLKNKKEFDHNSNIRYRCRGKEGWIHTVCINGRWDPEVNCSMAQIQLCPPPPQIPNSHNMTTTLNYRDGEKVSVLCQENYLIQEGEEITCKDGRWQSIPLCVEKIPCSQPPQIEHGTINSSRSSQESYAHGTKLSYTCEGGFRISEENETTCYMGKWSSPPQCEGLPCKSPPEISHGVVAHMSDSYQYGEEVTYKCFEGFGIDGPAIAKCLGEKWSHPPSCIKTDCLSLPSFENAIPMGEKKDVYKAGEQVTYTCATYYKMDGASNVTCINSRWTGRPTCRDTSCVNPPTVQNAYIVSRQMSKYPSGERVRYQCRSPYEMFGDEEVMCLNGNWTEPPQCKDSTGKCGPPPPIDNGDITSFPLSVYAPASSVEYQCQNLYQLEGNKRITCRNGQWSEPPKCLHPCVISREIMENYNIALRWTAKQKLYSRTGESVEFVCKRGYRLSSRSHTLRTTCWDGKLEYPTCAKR",
  "assay": "steady state fluorescence titration of purified human Factor H",
  "data": [
    {"binder": "B1", "values": [
      {"measurement": "stoichiometry (DMP1:Factor H)", "result": 1, "unit": "molar ratio"}
    ]}
  ]
}
